From US20220074941A1, “HSP90 COMBINATION THERAPY” (Sloan-Kettering Institute for Cancer Research, priority 2011, published 2022)

Experiments:
[1] = test system: Hsp90 complexes in K562 cell extract; experiment: Nano-LC-MS/MS of PU-beads pull-downs; assay type: binding; conditions: protein identified in PU-beads pull-down of K562 cell extract, QSTAR-Elite QTof MS
Procedure: Protein cargo isolated from cell lysate with PU-beads or control-beads was subjected to proteomic analysis by nano liquid chromatography coupled to tandem mass spectrometry (nano LC-MS/MS). Initial protein identification was performed using the Mascot search engine, and was further evaluated using Scaffold Proteome Software (Tables 5a-d).
(§1) Lysates prepared as mentioned above were first pre-cleaned by incubation with control beads overnight at 4° C. […] Beads were washed with lysis buffer, proteins eluted by boiling in 2% SDS, separated on a denaturing gel and Coomassie stained according to manufacturer's procedure (Biorad). […] Analyses of the batch purified pools were done using a QSTAR-Elite hybrid quadrupole time-of-flight mass spectrometer (QTof MS) (AB/MDS Sciex), equipped with a nano spray ion source. Peptide mixtures (in 20 μL) are loaded onto a trapping guard column (0.3×5-mm PepMap C18 100 cartridge from LC Packings) using an Eksigent nano MDLC system (Eksigent Technologies, Inc) at a flow rate of 20 μL/min. […] Electrospray ionization (ESI) needle voltage was set at about 1800 V. The mass analyzer is operated in automatic, data-dependent MS/MS acquisition mode, with the threshold set to 10 counts per second of doubly or triply charged precursor ions selected for fragmentation scans. Survey scans of 0.25 sec are recorded from 400 to 1800 amu; up to 3 MS/MS scans are then collected sequentially for the selected precursor ions, recording from 100 to 1800 amu. The collision energy is automatically adjusted in accordance with the m/z value of the precursor ions selected for MS/MS. Selected precursor ions are excluded from repeated selection for 60 sec after the end of the corresponding fragmentation duty cycle. […] One missed tryptic cleavage site was allowed, precursor ion mass tolerance=0.4 Da fragment ion mass tolerance=0.4 Da, protein modifications were allowed for Met-oxide, Cys-acrylamide and N-terminal acetylation. MudPit scoring was typically applied with ‘require bold red’ activated, and using significance threshold score p<0.05. Unique peptide counts (or ‘spectral counts’) and percent sequence coverages for all identified proteins were exported to Scaffold Proteome Software (version 2_06_01, www.proteomesoftware.com) for further bioinformatic analysis (Table 5a). Using output from Mascot, Scaffold validates, organizes, and interprets mass spectrometry data, allowing more easily to manage large amounts of data, to compare samples, and to search for protein modifications.

[2] = test system: Hsp90 complexes in Mia-PaCa-2 cell extract; experiment: Nano-LC-MS/MS of PU-beads pull-downs; assay type: binding, human; conditions: protein identified in PU-beads pull-down of Mia-PaCa-2 cell extract; QSTAR-Elite QTof MS
Procedure: as §1

Row | Molecule | Number of Assigned Spectra, K562 Prep 1 [1] | Number of Assigned Spectra, K562 Prep 2 [1] | Number of Assigned Spectra, Mia-Paca 2 [2]
1 | TRIM56 (protein, UniProt Q9BRZ2 1-755, looked up) E3 ubiquitin-protein ligase …: MVSHGSSPSLLEALSSDFLACKICLEQLRAPKTLPCLHTYCQDCLAQLADGGRVRCPECRETVPVPPEGVASFKTNFFVNGLLDLVKARACGDLRAGKPACALCPLVGGTSTGGPATARCLDCADDLCQACADGHRCTRQTHTHRVVDLVGYRAGWYDEEARERQAAQCPQHPGEALRFLCQPCSQLLCRECRLDPHLDHPCLPLAEAVRARRPGLEGLLAGVDNNLVELEAARRVEKEALARLREQAARVGTQVEEAAEGVLRALLAQKQEVLGQLRAHVEAAEEAARERLAELEGREQVARAAAAFARRVLSLGREAEILSLEGAIAQRLRQLQGCPWAPGPAPCLLPQLELHPGLLDKNCHLLRLSFEEQQPQKDGGKDGAGTQGGEESQSRREDEPKTERQGGVQPQAGDGAQTPKEEKAQTTREEGAQTLEEDRAQTPHEDGGPQPHRGGRPNKKKKFKGRLKSISREPSPALGPNLDGSGLLPRPIFYCSFPTRMPGDKRSPRITGLCPFGPREILVADEQNRALKRFSLNGDYKGTVPVPEGCSPCSVAALQSAVAFSASARLYLINPNGEVQWRRALSLSQASHAVAALPSGDRVAVSVAGHVEVYNMEGSLATRFIPGGKASRGLRALVFLTTSPQGHFVGSDWQQNSVVICDGLGQVVGEYKGPGLHGCQPGSVSVDKKGYIFLTLREVNKVVILDPKGSLLGDFLTAYHGLEKPRVTTMVDGRYLVVSLSNGTIHIFRVRSPDS | 0 | 0 | 3
2 | HYOU1 (protein, UniProt Q9Y4L1 33-999, looked up) Hypoxia up-regulated protein 1: LAVMSVDLGSESMKVAIVKPGVPMEIVLNKESRRKTPVIVTLKENERFFGDSAASMAIKNPKATLRYFQHLLGKQADNPHVALYQARFPEHELTFDPQRQTVHFQISSQLQFSPEEVLGMVLNYSRSLAEDFAEQPIKDAVITVPVFFNQAERRAVLQAARMAGLKVLQLINDNTATALSYGVFRRKDINTTAQNIMFYDMGSGSTVCTIVTYQMVKTKEAGMQPQLQIRGVGFDRTLGGLEMELRLRERLAGLFNEQRKGQRAKDVRENPRAMAKLLREANRLKTVLSANADHMAQIEGLMDDVDFKAKVTRVEFEELCADLFERVPGPVQQALQSAEMSLDEIEQVILVGGATRVPRVQEVLLKAVGKEELGKNINADEAAAMGAVYQAAALSKAFKVKPFVVRDAVVYPILVEFTREVEEEPGIHSLKHNKRVLFSRMGPYPQRKVITFNRYSHDFNFHINYGDLGFLGPEDLRVFGSQNLTTVKLKGVGDSFKKYPDYESKGIKAHFNLDESGVLSLDRVESVFETLVEDSAEEESTLTKLGNTISSLFGGGTTPDAKENGTDTVQEEEESPAEGSKDEPGEQVELKEEAEAPVEDGSQPPPPEPKGDATPEGEKATEKENGDKSEAQKPSEKAEAGPEGVAPAPEGEKKQKPARKRRMVEEIGVELVVLDLPDLPEDKLAQSVQKLQDLTLRDLEKQEREKAANSLEAFIFETQDKLYQPEYQEVSTEEQREEISGKLSAASTWLEDEGVGATTVMLKEKLAELRKLCQGLFFRVEERKKWPERLSALDNLLNHSSMFLKGARLIPEMDQIFTEVEMTTLEKVINETWAWKNATLAEQAKLPATEKPVLLSKDIEAKMMALDREVQYLLNKAKFTKPRPRPKDKNGTRAEPPLNASASDQGEKVIPPAGQTEDAEPISEPEKVETGSEPGDTEPLELGGPGAEPEQKEQSTGQKRPLKNDEL | 0 | 3 | 0
3 | ZG16B (protein, UniProt Q96DA0 17-172, looked up) Pancreatic adenocarcinoma …: GKMYGPGGGKYFSTTEDYDHEITGLRVSVGLLLVKSVQVKLGDSWDVKLGALGGNTQEVTLQPGEYITKVFVAFQAFLRGMVMYTSKDRYFYFGKLDGQISSAYPSQEGQVLVGIYGQYQLLGIKSIGFEWNYPLEEPTTEPPVNLTYSANSPVGR | 0 | 3 | 0
